This is an account of results in patent US20230416394A1 (ELPISCIENCE SUZHOU BIOPHARMA, published 2023).

One assay deals with T1, 6×His tagged human CD39 (human).
T1 chain: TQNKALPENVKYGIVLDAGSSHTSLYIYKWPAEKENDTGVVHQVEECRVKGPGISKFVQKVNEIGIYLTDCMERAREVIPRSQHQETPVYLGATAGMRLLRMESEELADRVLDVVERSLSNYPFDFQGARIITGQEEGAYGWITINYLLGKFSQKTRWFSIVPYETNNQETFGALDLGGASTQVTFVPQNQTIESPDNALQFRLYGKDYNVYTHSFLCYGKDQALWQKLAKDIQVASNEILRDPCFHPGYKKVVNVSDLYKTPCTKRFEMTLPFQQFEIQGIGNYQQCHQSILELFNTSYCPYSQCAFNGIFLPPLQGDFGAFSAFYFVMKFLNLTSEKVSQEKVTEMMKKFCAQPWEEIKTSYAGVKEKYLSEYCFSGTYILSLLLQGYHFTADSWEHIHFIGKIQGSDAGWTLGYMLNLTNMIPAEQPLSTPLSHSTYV
Put plainly: Biacore, antibody captured, 6×His human CD39 as analyte, 1:1 model. The method, then:
In particular, humanized antibodies hu23.H5L5, hu23.201, hu14.H1L1 and reference antibodies I394 and T895 were characterized for binding affinity against human CD39 using Biacore (GE). Briefly the antibodies to be tested were captured to […] (GE) using Human Antibody Capture Kit (GE). The antigen of 6×His tagged human CD39 was serially diluted for multiple doses and injected at 30 μl/min for 180 s. Buffer flow was maintained for dissociation of 400 s. 3 M MgCl₂ was used for chip regeneration. The association and dissociation curves were fit with 1:1 binding model, and the Ka/Kd/KD values for each antibody were calculated.
Background: SPR reads the build-up and loss of mass on a sensor chip optically.

The target in assay [1] is T2, human CD39 (human, UniProt P49961 1-510).
T2 construct: full length human CD39 (NP_001767.3) on transfected CHOK1 cells, or native on SK-MEL-5, SK-MEL-28 and MOLP-8 cells; also called hCD39; ENTPD1
T2 sequence: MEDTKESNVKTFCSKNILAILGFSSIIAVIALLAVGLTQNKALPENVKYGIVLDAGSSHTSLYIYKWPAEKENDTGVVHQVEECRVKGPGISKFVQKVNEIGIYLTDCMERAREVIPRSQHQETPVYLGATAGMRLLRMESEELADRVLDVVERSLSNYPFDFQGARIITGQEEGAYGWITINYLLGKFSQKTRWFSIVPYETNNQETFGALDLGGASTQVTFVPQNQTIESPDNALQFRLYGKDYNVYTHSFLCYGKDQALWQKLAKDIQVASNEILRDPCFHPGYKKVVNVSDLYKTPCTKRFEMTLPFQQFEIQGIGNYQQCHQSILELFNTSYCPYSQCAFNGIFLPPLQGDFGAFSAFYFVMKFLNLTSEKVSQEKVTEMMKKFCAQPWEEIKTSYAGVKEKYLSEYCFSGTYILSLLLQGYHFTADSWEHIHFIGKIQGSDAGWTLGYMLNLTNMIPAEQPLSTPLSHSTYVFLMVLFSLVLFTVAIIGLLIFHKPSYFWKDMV
Put plainly: FACS, MOLP-8 cells.

In assay [2] the target is T2, human CD39. Nature of the assay: FACS, SK-MEL-5 cells.
Assay [3] addresses T2, human CD39. Nature of the assay: FACS, SK-MEL-28 cells. In general terms: A flow cytometer gives signals particle by particle.
The target of assay [4] is T2, human CD39. Put plainly: cell-based or functional assay.
A further assay has as its target T3, cynomolgus CD39 (cynomolgus monkey, UniProt A0A7N9DGH8 1-510).
T3 construct: whole, on cells; also called cyno CD39; CHOK1-cynoCD39
T3 sequence: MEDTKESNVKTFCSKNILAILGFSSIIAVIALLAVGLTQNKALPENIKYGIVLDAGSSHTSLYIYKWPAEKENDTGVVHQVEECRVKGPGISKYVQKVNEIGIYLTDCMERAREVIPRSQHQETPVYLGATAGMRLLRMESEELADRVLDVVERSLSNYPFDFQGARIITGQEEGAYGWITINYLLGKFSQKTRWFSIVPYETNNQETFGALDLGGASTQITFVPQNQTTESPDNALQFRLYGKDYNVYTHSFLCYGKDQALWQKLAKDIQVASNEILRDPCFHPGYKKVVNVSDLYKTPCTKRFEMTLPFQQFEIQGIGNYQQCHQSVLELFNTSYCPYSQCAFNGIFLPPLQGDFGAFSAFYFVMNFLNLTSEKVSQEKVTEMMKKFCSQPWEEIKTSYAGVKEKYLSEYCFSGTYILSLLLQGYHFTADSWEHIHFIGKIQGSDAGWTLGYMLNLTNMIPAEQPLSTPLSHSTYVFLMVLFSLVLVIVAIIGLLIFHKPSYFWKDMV
Nature of the assay: FACS, CHO-K1/cynoCD39 cells.

Assay [5] concerns the target T2, human CD39. Nature of the assay: FACS, MOLP-8 cells. This is another data set of the same source.
In assay [6] the target is T2, human CD39. Nature of the assay: cell-based or functional assay. The source holds these as a separate data set.
Assay [7] deals with T2, human CD39. Put plainly: FACS, MOLP-8 cells, second set.
In a further assay the target is T4, mouse CD39 (mouse, UniProt P55772 1-510).
T4 construct: whole, on cells; also called mCD39; CHOK1-mCD39
T4 sequence (looked up): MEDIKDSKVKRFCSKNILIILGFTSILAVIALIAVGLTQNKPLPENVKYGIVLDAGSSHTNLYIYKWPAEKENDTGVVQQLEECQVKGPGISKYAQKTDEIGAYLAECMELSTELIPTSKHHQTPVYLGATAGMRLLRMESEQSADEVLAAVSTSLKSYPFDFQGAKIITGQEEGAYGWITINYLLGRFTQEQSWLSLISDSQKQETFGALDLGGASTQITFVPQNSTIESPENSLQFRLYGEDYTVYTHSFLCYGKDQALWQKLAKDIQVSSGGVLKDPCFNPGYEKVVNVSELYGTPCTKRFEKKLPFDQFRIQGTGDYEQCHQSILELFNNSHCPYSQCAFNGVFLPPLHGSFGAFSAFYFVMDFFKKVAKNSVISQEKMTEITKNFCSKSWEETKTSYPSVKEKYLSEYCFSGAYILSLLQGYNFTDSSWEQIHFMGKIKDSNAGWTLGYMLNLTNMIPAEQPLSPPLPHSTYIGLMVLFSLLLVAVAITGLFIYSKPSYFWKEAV
Nature of the assay: FACS, CHOK1-mCD39 cells. An excerpt:
FACS were used to determine binding of the antibodies to cell lines expressing CD39 naturally (SK-MEL-28) or recombinantly (CHOK1-hCD39, CHOK1-cynoCD39, and CHOK1-mCD39), or with cells lacking CD39 expression (CHOK1-blank) as a negative control.
CHOK1-hCD39, CHOK1-cCD39, CHOK1-mCD39 and CHOK1-blank cells were maintained in culture medium according to ATCC procedure. Cells were collected and re-suspended in blocking buffer at a density of 3×10⁶ cells/ml. […] The plates were washed with FACS buffer, and cells were re-suspended in 100 μL/well of PBS. Cells were then analyzed with FACSVerse™ and mean fluorescence intensity were determined. Full binding curves were generated on the CD39 expressing cells by testing a range of antibody concentrations. Apparent affinity was determined for each antibody using Prism software.

B1: hu14.H1L1 (antibody, V domains shown)
VH: EVQLVESGGGLVKPGGSLRLSCAASGFTFSKYWMNWVRQAPGKGLEWVGEIRLKSNKYGTHYAESVKGRFTISRDDSKNTLYLQMNSLKTEDTAVYYCTTQLDLYWFFDVWGQGTTVTVSS
VL: EIVLTQSPATLSLSPGERATLSCRASQSISDYLHWYQQKPGQAPRLLIYYASQSISGIPARFSGSGSGTDFTLTISSLEPEDFAVYYCQNGHSLPLTFGGGTKLEIK
With B1, in the assay with 6×His tagged human CD39, binding was put at a Kd of 5.03 nM; the koff (usually a measure of how fast the partners let go of each other) is 0.00455 s⁻¹; the kon (in general, the rate constant with which the complex forms) is 903000 M⁻¹ s⁻¹.

B2: I394 (antibody, V domains shown)
VH: QVQLVQSGAEVKKPGASVKVSCKASGYTFKSYEMHWVRQAPGQGLEWMGRINPSVGSTWYAQKFQGRVTMTRDTSTSTVYMELSSLRSEDTAVYYCARGKREGGTEYLRKWGQGTLVTVSS
VL: EIVLTQSPGTLSLSPGERATLSCRASQSVASSYLAWYQQKPGQAPRLLIYGASNRHTGIPDRFSGSGSGTDFTLTISRLEPEDFAVYYCQQYHNAITFGGGTKVEIK
With B2, the EC50 – broadly, the concentration giving half of the maximal effect – with human CD39 [1] is 0.11 nM; in the assay with human CD39 [2] it was 0.49 nM; with human CD39 [3] it was 0.94 nM; in the assay with cynomolgus CD39, 2.71 nM. In addition, in the assay with human CD39 [4], the “ATPase activity inhibition (IC50), MOLP-8 cells” value is 0.21 nM. In the assay with human CD39 [4], the “ATPase activity inhibition (IC50), SK-MEL-5 cells” value was 0.1 nM.

B3: hu23.H3L1 (antibody, V domains shown)
VH: QVQLVQSGAEVKKPGASVKLSCKASGYNLKDTFLHWVRQAPGQGLEWIGRIDPANGNIKYDPKFQGRATITADTSASTAYMELSSLRSEDTAVYYCANSPYYYGSGYRIFDVWGQGTTVTVSS
VL: EIVLTQSPATLSLSPGERATLSCSAFSSVNYMHWYQQKPGQAPRLLIYTTSNLASGIPARFSGSGSGTDFTLTISSLEPEDFAVYYCQQRSTYPFTFGQGTKLEIK
On to B3, for which the EC50 with human CD39 [5] is around 15.4 nM.

B4: hu23.H5L5 (antibody, V domains shown)
VH: QVQLVQSGAEVKKPGASVKVSCKASGYNLKDTFLHWVRQAPGQGLEWMGRIDPANGNIKYDPKFQGRVTITADTSANTAYMELISLRSEDTAVYYCANSPYYYGSGYRIFDVWGQGTTVTVSS
VL: QIVLTQSPATLSLSPGERATLSCSAFSSVNYMHWYQQKPGQAPRLLIYTTSNLASGIPTRFSGSGSGTSYTLTISSLEPEDFAVYYCQQRSTYPFTFGQGTKLEIK
As to B4, in the assay with human CD39 [6], the “ATPase inhibition on SK-MEL-28 cells, IC50” value is 0.122 nM. Further, in the assay with human CD39 [4], the “ATPase activity inhibition (IC50), MOLP-8 cells” value is 0.33 nM and the “ATPase activity inhibition (IC50), SK-MEL-5 cells” value was 0.07 nM.

B5: hu23.H1L1 (antibody, V domains shown)
VH: QVQLVQSGAEVKKPGASVKVSCKASGYNLKDTFLHWVRQAPGQRLEWMGRIDPANGNIKYDPKFQGRVTITRDTSASTAYMELSSLRSEDTAVYYCARSPYYYGSGYRIFDVWGQGTTVTVSS
VL: EIVLTQSPATLSLSPGERATLSCSAFSSVNYMHWYQQKPGQAPRLLIYTTSNLASGIPARFSGSGSGTDFTLTISSLEPEDFAVYYCQQRSTYPFTFGQGTKLEIK
In the assay with human CD39 [7], B5 had an EC50 of around 78.2 nM.

B6: mAb35 (antibody, V domains shown)
VH: EVRLQQSGAELVKPGASVKLSCTASGFNIEDTYVHWMKQRPEQGLEWIGRIDPAIDNSKYDPKFQGKATITAVSSSNTAYLQLSSLTSEDTAVYYCALYDGYNVYAMDYWGQGTSVTVSS
VL: DIVMTQAAFSNPVTLGTSASISCRSSKNLLHSNGITYLYWYLQRPGQSPQLLIYRASTLASGVPNRFSGSESGTDFTLRISRVEAEDVGVYYCAQLLELPHTFGGGTKLEIK
notes: mouse hybridoma antibody
B6: the binding result in the assay with mouse CD39 is reported as “no binding (tested: 30 µg/ml)”.

B7: mAb34 (antibody, V domains shown)
VH: EIQVQQSGPELVKPGASVKVSCKASGYSFTDYNMYWVKQSHGKSLEWIGFIDPYNGYTSYNQKFKGKATLTIDKSSSTAFMHLNSLTSEDSAVYYCAIYGYDDAYYFDYWGQGTTLTVSS
VL: QIVLTQSPAIMSASPGEKVTITCSATSSVSYMHWFRQKPGTSPKLWIYSTSNLASGVPARFSGSGSGTSYSLTISRMAAEDAATYYCQQRITYPFTFGSGTKLEIT
notes: mouse hybridoma antibody
Consider B7, for which, in the assay with mouse CD39, the binding result is listed as “no binding (tested: 30 µg/ml)”.

B8: T895 (antibody, V domains shown)
VH: EVQLQQSGPELVKPGASVKMSCKASGYTFTDYNMHWVKQSHGRTLEWIGYIVPLNGGSTFNQKFKGRATLTVNTSSRTAYMELRSLTSEDSAAYYCARGGTRFAYWGQGTLVTVSA
VL: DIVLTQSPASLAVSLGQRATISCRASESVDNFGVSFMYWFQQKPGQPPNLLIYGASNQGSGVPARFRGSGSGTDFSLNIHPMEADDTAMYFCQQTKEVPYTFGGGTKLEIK
In the case of B8, in the assay with human CD39 [4], the “ATPase activity inhibition (IC50), MOLP-8 cells” value amounted to 0.51 nM and the “ATPase activity inhibition (IC50), SK-MEL-5 cells” value was found to be 0.09 nM.
